Source: the domain aggregation screens of Martell et al. (2025)

Experiment: soluble fraction after stress (log2 fold change); higher = more stays soluble; pooled small domains, quantitative proteomics
Details: stress: 50 degC
Procedure, shortened: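 The measure of aggregation propensity here is the base-two logarithm of the fold change in the soluble amount of each protein after stress. A higher value means more of that protein stays in solution. Stress was applied at 50°C to pooled libraries of small protein domains, read out by high-throughput quantitative proteomics.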

| Sequence | soluble fraction (log2) |
| --- | --- |
| HMEFDVELTSFEEAKKLKVIKEVKDVTGLSLGEAKDLVMGAPKAIKTGVSKEEAEAIKTQIEAAGAVVTI | 0.122 |
| HMGEWNSVFSVPSSVVDKHLKTASSVYVKVLLVILRNAGNRISDQQISEQLSVPVDEVQEAIRYWNAAGIF | -0.247 |
| HMLDQSYYETANEIISRYPLEEKSLIPIIQDIQATYRYLPPDLLDYVAKKIGITETKAYSVASFYENFSF | -0.327 |
| HMDRPEPLYIVNGKEVQTLEEAFELGRTLGSAKKGTQVRLRRLLPEEGVEKYGEKGRNGVFEFMVSA | 0.217 |
| HMTVSADQTAADAVIKLINAIGTVSENSGSAISAARSGYDALTDTQKKLVTNYNKLTQAEQVFSSLPS | 0.203 |
| HMTPLILTAQEGGERLDAFVASQVEDLTRSAAQRLLEQGAVTSGGKPLKKNAKTTPGMVVEVLLPDPQ | 0.251 |
| HMINVGYKFKQIRENAGLTLKQVSAMSGLSVSFISQIERGVVDPSWSSLKKISAALNIKLKDLF | -1.78 |
| HMYVYEPGEFAVRGSILDVYSYASEFPYRIDFFGDDVESIRTFEVQTQLSKEAKDRVSIVPDTEQ | -0.181 |
| HMGEESIAELISNPKLSDAKRTVILDLLSRGLTVDQIKPYIQSDDPYTAEQLQFELYKLFFTQI | -0.228 |
| HMFNKTKVPNFIDMNYYEEIEGNSEYDKFNFADPITKNDDTKAPGTVIDQTPEKGTRIDEEKTVIQLTIA | -0.102 |
| HMRHDSEGYYRLIGVPPDADDAELKEAAKKRLMEAHPDHGGSEDEFVEVYRAYRTLTDPSARAEYDARP | 0.307 |
| HMDDAFLNKEMLKQALENLNEREKKLIYLRFYEGLTQKEIADRLSLSQMHVSRLLNESLNKLRRKI | -0.245 |
| HMKPDAAKREQLIDIALRLFSQQGIARTSLNAIAREAGVTPAMLHYYFNSREQLLDVMIEERFL | -3.09 |
| HMTFAEADAQYEVIKQQYLAGALDEEQFDEQLHRLMVLDDGGLWWAKSRENGSWHYYDPDREDWIAATP | -0.355 |
| HMSDNHYLLEIFLADLKSDEKFIRELAIFQLHHHIESDKVRAELKAAAETESDPYLKGMIESLLSSTS | -0.943 |
| HMEAFELTPREKQVLQLLVQGKAYKIIAADLDITYDTVRAHIKKIYEKLHVGSMTEAVAKAIQHKL | -0.882 |
| HMAPVEEWAKASVMEDPTLVTETMARIFAQQGQIGKARKAYRHLALTYPAKSTYFAAQLKKLNQR | -0.259 |
| HMGRRDLSWQPAAGGVSIDGLKAGEAWTLFGLNGRILKQGYAPEGQMSLAVNAGLFVLRGAESGVIRIAVA | -1.25 |
| HMDTAEQNWRLRGKLVTLGLNARQIRMALASHAPRYLEDNIAVVERDLAAGKVRNLPAYLLAALREDYRP | -1.67 |
| HMFNFPEEVRVQLAKSEQLRNLLIPMSETVRDALSGEELWFGRTIFNTTSKKIESWTNPGVWVE | -1.45 |
| HMDLDYSGIMNVLNQKYHITFYNNKKIQNLMPKLMIIMGYNSIINEIGHSKSLKALINSFEEKLKSYILT | -3.02 |
| HMSLNQRIKEARIKMGYTQEQLGNLIGVAKTTISGYEKNREPDAATIGLIIDALKVDANFLFQ | -1.62 |
| HMNAMFEKVLAAVMGFIGVSAFAKNADGKSEMTSDQEKRLTDKWGSKFVEEFKNDLLEYEKNGNAAEDAV | -0.264 |
| HMNLDVEQIKKEALNQLIEIGNENDGIVTIKDFKKIDDISSLDEDDIEDIRNLLIENNIEIFE | 0.127 |
| HMSMDYYSTLGVSKTASASDIKKAYRKLAMANHPDKGGDSAKFAKITEAYDVLKDPQKRNNYDQFGTA | 0.162 |
| HMYTVKELSRLTGLTPRTLRYYDAIGLLSPARNRDNDYRLYGGAEVDRLQEILLYREMGLPLEEIGRILD | -1.45 |

| Sequence | soluble fraction (log2) |
| --- | --- |
| HMQPVEHLPTTDPLTTSAASEHERYEKVRWWLEEMQRTYETGDEVRAERIRLSLIEQMYKWEGE | -0.185 |
| HMVPDVVGKDYALAQAELEGANLVVAKGSSRYDDTLPAGVVLATDPKVGTVVKPGAKVTVILSK | 0.251 |
| HMRVVGRNHYDDADLAHIRSVIQLEARPLNVSRIARTLANEYPKHTYWSYLSFLQKNLRDRPDLF | -1.83 |
| HMSGRVPTADDIAVGMKVYVPRLGGTGTVVTEPVRDKVVIQVGSLRLHAEVAELLLPDEHGRIQVPR | 0.00655 |
| HMNNKSDLLFNHLRQRIATMENGTIFPSVRQLMTEYNVSQSTVSTAIRSLKELGLLEALSRQGMVVRKE | -0.476 |
| HMDDVIDVYATYDKSAEGVLSNIQLFSNQKKTTPITPESGKIYIDVEGNYQFRWTGTQYATV | -0.111 |
| HMLLFNVADIVKRAKRVLNFKTDAELAAYLGVSRPTLSNWIARNGIDFPLLLEKLKEIDYNWLLVGKGKPE | -2.33 |
| HMKEKDAYTSEILDTLKNAKLLVVEGTVYPLLTRLKNDGLLNYRWEESTSGPPRKYYGLTDEG | -0.445 |
| HMDDLATAYKAMGVDASISDKDLKRAYRKLMSQHHPDKMIAKGVPADMVAMATEKTQEIQAAYDLIERSR | 0.127 |
| HMNQYALTDREKNVLGLLVDGLSYKMIADKENISFHTVNAHVRKIYEKLHVHSLAEAVSKALKENL | -1.29 |
| HMSDVTPDVVRALRKRLKLTQVQFGEIFGMTSKKVSAWEHGKAEPTEEQKQKIQSLLKENNEQ | -0.0029 |
| HMEPSAQEIANKLLGHVKSLGLPITGLSISYNSTSDLATVRGQVQSQADREKIILAVGNVDHVAKVDDQLT | -0.0356 |
| HMYVKIAADAAMPYTIKRVVTDYSSAALDAAYDGSLPKWLTISSSTKDAGSGLYRHEIIYTVTAHPE | -0.68 |
| HMSLGPNAYGKPATALNILRETVMGKELFDHAFKTYSKRWMFKHPSPEDFFRTMEDASAVDLDWFWR | -0.239 |
| HMRSKTDLVYEEIKKLILRGELSSDTPISENHLARRFEISRTPIREALKRLHIEGFVRIIPNHGVFVR | -0.343 |
| HMGFAANLSRLMEYHNISMYRLAKEVGVHQTTVKNWLEEESEPKIAALEKIVGLLGVSYDELLG | -4.56 |
| HMGKGGVAYLLESEFGIELPKDMQREFGPIANDIVDSLGREVSGAELKSMFWKEYIERETPFLLLLVTGQL | 0.457 |
| HMNIIATHTVPAIEQKIRLQEYAISIFPQINSRSALKKAIAKKLVLLDGERASTADWIQPGQKIELLEDK | -0.337 |
| HMAHRYQQIADDLGRRVEAGEFAAGRLLPSEATLSGQYKASRVTVRKALEALRTDGLVESRQGFGWFVAAD | -0.379 |
| HMNTIIIDILPKGLSIAGNQTEPKSLIQQLLMARRADPAQPILLRPAIAVPVQNVVELIDRLTAAGI | -0.221 |
| HMLDKRSHAKKVLDAIEAVILGRATNDQLAYTINGRSLQKTPLPDLLRLRSQYQAEYQRELRAERIRKG | -0.131 |
| HMRTGSSVLVGLVAPVRLGATGAPKVFADGALWEARSAVPLNDGQLVEITGTDGLTVLVKPSA | 0.0494 |
| HMFIRINQTQNSPRKSVQIVESKRDGHKVRTKILRHVGIAMDDVELQKLKSLAQDIIAKMTVETENASKQ | -0.00422 |
| HMSSKYLKIYNDIVGKIDSGIFEANTKLPSESQLMDEYNVSRYTVRKSLNLLEQNGYIEKSKGKGSFVLDM | -0.717 |
| HMDPLGALSDRERQVLALIGQGHGLQAIADQLGVSYKTAANTSSALKKKLGVDGINGLMKFALDSG | -0.505 |
| HMRPTAWDQISDWLDRHGSIANADVVRIAGLDTLKASKLLTTWREQGLLEPLPGRGKRNMAYVRAI | -0.554 |

| Sequence | soluble fraction (log2) |
| --- | --- |
| HMKLSIEDLAAELIRKIEAGDIGNEQGKMPSERELLAIYPVSRYTLRQALNKLSKMGWIYQMQGRGSYIRF | -1.35 |
| HMGPSVGMTVGEMERDLIFRTLETVGDNRTKAADMLGISIRTLRNKLNEYREAGFEWPRKAG | 0.00867 |
| HMSSLQFVTLTLMEGHAWVGREIQELLMPPQMRIALIRRGDSQVIPKGSTILESADELILSAIEYQG | -4.14 |
| HMPQLSNEEQKIVDALEGSDGKQINLITVETNIPMARLMSVLFEMEMRGIVKSLNGARYKLN | -0.163 |
| HMPLTPATADAGRFVKQDRKYIRLLAKRYNFTHGDIKSEIDRVSAVLSSNGIDRVPLFLYKEYLEQYLAG | -1.85 |
| HMGYGEQEAEATKYMSLHAIMSADETLSKMYTPENQHKLMTHVMEQNGIKNVKDYLTPPSELP | -0.102 |
| HMNTISTLEITTKKDIRILDESELLKSKSSKNNIFNYLLASGDFNLLKDKLNEIDEFSDEIISYQLN | -0.611 |
| HMENRILIPTAENIGERLDRYISSELDAPRSQVQIWIDSGLVAVSGGLKPKNYRLREGDEIEVTIPDPV | 0.0407 |
| HMIMTHSALLEKDGFDIVKVHFERPNDDGFDFLDMTLPGEIVYKSFGFSEDEILKLKRYAKNNSSLIWDF | -2.31 |
| HMAPRIVTIQIPVDKIRDVIGPGGKVIRSIIERTGVKIDVEDDGRVNVASADGDSAQRAIAIIQELTAT | 0.0444 |
| HMIMNKEIPVVADEFVEKEFGTGAVKLTPAHDPNDYESGERHGLEVVEVFDETGKMNDLVPEYEG | 0.551 |
| HMDRTIGEIGLVTETIDSTLESGRVMVDGLSWKARTSDNTVLEAGTRVQVKEIHGVTLTVEKA | 0.166 |
| HMNQNHFLDSVVEFAKDEASRAFFQKAVKKLGEGLVEEAMGEVKMREADGSVNSRAPYFIALLENWMENR | 0.0128 |
| HMSMDYYNILGVNRNASTGEIKKAYKRASMQHHPDRGGNSDEFIKVQQAYDTLSDNHKRQAYDNP | 0.0774 |
| HMDIAYFSNAELNDAFIQFLNMRQEAGKQLNGYQIQILTEKLERVADTDEDRISAVKNAIAGGWSNFYPPK | -0.272 |
| HMRKAERHLLIKQVIDEFTIRTQEELLAKLSDYGVNATQATISRDIRDLKIVKAPDENGISRFVFF | -0.964 |
| HMPLQLPEPMAELARNGETARLAEALKQGLDIDLRDGKGNTLLMIAAYQGRAETVAMLLKAGA | -1.71 |
| HMPLTRSDVKRIQLWLMAHGYDIGSPDGVFGDKSNRAANAFLSQQGRSLETVTLGKLYDILEAN | -2.01 |
| HMKGYIGESKARNIALKKAPGASITKFEFDKDDGIAVYEVELRKGIYEYELKINAVTGAIIEFEKDIE | -1.46 |
| HMLINLGPRIRKERRSKGISQSDFSKNLGISASYLNLLENGRRTLTVPLLIKIGNELNLSLKDL | -0.0339 |
| HMLLSFYGTYGNVKLTGKELEDLQKEFPFDYQARIDRLSAYMESSGRKYHSHFATIRSWAQDDAKKN | -1.79 |
| HMPGRVITVMVNGKRVDLPFREEPYIFVDLFRYMDFDVERARGRIQLAINGKKAGYTDIIREGDSIEI | -0.562 |
| HMQSRRTPASLVERVRQLNGQYQDKEIAELLNREGIKTAHGNEFNAKRIEMIRRHNGISKHSAQ | 0.174 |
| HMPNQIKQIAVNTASVSDIATIPGISFDFAKEIWEFRILRQKIGSLSELQKIEGMTASKYALIELYLHI | -3.37 |
